Experimental data reported in PMC9462685 (Science Advances, 2022).

B1: Sr35^R157A (receptor)
chain: MEIAMGAIGSLLPKLGELLIGEITLEKKVRKGIESLITELKLMQAVLSKVSKVPADQLDEGVKIWAGNVKELSYQMEDIVDAFMVRVGDGGESTNPKNRVKKILKKVKKLFKNGKDLHRISAALEEVVLQAKQLAELRQRYEQEMRDTSANTSVDPAMMALYTDVTELVGIEETRDKLINMLTEGDDWSKHPLKTISIVGFGGLGKTTLAKAAYDKIKVQFDCGAFVSVSRNPEMKKVLKDILYGLDKVKYENIHNAARDEKYLIDDIIEFLNDKRYLIVIDDIWNEKAWELIKCAFSKKSPGSRLITTTRNVSVSEACCSSEDDIYRMEPLSNDVSRTLFCKRIFSQEEGCPQELLKVSEEILKKCGGVPLAIITIASLLANKGHIKAKDEWYALLSSIGHGLTKNRSLEQMKKILLFSYYDLPSYLKPCLLYLSIFPEDREIRRARLIWRWISEGFVYSEKQDISLYELGDSYFNELVNRSMIQPIGIDDEGKVKACRVHDMVLDLICSLSSEENFVTILDDPRRKMPNSESKVRRLSIQNSKIDVDTTRMEHMRSVTVFSDNVVGKVLDISRFKVLRVLDLEGCHVSDVGYVGNLLHLRYLGLKGTHVKDLPMEIGKLQFLLTLDLRGTKIEVLPWSVVQLRRLMCLYVDYGMKLPSGIGNLTFLEVLDDLGLSDVDLDFVKELGRLTKLRVLRLDFHGFDQSMGKALEESISNMYKLDSLDVFVNRGLINCLSEHWVPPPRLCRLAFPSKRSWFKTLPSWINPSSLPLLSYLDITLFEVRSEDIQLLGTLPALVYLEIWNYSVFEEAHEVEAPVLSSGAALFPCATECRFIGIGAVPSMFPQGAAPRLKRLWFTFPAKWISSENIGLGMRHLPSLQRVVVDVISEGASREEADEAEAALRAAAEDHPNRPILDIW
B2: Sr35^Δ20 (domain or fragment)
chain: GEITLEKKVRKGIESLITELKLMQAVLSKVSKVPADQLDEGVKIWAGNVKELSYQMEDIVDAFMVRVGDGGESTNPKNRVKKILKKVKKLFKNGKDLHRISAALEEVVLQAKQLAELRQRYEQEMRDTSANTSVDPRMMALYTDVTELVGIEETRDKLINMLTEGDDWSKHPLKTISIVGFGGLGKTTLAKAAYDKIKVQFDCGAFVSVSRNPEMKKVLKDILYGLDKVKYENIHNAARDEKYLIDDIIEFLNDKRYLIVIDDIWNEKAWELIKCAFSKKSPGSRLITTTRNVSVSEACCSSEDDIYRMEPLSNDVSRTLFCKRIFSQEEGCPQELLKVSEEILKKCGGVPLAIITIASLLANKGHIKAKDEWYALLSSIGHGLTKNRSLEQMKKILLFSYYDLPSYLKPCLLYLSIFPEDREIRRARLIWRWISEGFVYSEKQDISLYELGDSYFNELVNRSMIQPIGIDDEGKVKACRVHDMVLDLICSLSSEENFVTILDDPRRKMPNSESKVRRLSIQNSKIDVDTTRMEHMRSVTVFSDNVVGKVLDISRFKVLRVLDLEGCHVSDVGYVGNLLHLRYLGLKGTHVKDLPMEIGKLQFLLTLDLRGTKIEVLPWSVVQLRRLMCLYVDYGMKLPSGIGNLTFLEVLDDLGLSDVDLDFVKELGRLTKLRVLRLDFHGFDQSMGKALEESISNMYKLDSLDVFVNRGLINCLSEHWVPPPRLCRLAFPSKRSWFKTLPSWINPSSLPLLSYLDITLFEVRSEDIQLLGTLPALVYLEIWNYSVFEEAHEVEAPVLSSGAALFPCATECRFIGIGAVPSMFPQGAAPRLKRLWFTFPAKWISSENIGLGMRHLPSLQRVVVDVISEGASREEADEAEAALRAAAEDHPNRPILDIW

Target: the molecule itself
Assay: SEC

Protein	binding result
B1	binds
B2	binds
